Laboratory results as given in US20220002432A1 (VIRTUOSO BINCO, published 2022).

T1: Rhesus-ICAM1 (rhesus, UniProt Q5NKV6 28-480, limits assumed)
T1 sequence (looked up): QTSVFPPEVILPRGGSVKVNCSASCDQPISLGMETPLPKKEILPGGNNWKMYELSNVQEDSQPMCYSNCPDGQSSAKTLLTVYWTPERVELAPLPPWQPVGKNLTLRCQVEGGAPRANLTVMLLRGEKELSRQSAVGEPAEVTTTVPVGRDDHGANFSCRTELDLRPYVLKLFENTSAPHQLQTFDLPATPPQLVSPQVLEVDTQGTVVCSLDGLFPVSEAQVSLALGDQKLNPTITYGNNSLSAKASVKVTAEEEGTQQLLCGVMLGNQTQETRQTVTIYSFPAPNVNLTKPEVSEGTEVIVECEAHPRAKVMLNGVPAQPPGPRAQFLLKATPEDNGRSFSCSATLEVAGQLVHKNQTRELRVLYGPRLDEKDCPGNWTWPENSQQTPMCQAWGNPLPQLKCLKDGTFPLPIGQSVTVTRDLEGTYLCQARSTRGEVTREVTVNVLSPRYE


Tests used:
[1] = molecular target: T2, ICAM1 on the surface of DU145 cells (human, UniProt P05362 28-532); assay: flow cytometry, DU145 cells;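 also: purified antibodies in dilution series bound to cells for 1 h at 4 °C, detected with a fluorescent secondary antibody (1 h, 4 °C, dark), read by flow cytometry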
T2 construct: whole, on cells
Protocol: (§1) Harvested cells were centrifuged at 2000 rpm for 5 min and resuspended with 10-15 ml ice-cold culture medium. Cells were counted and then 3×10⁶ cells were resuspended per mL of blocking buffer (PBS plus 2% FBS). 100 μl of the cell suspension was dispensed into each well of a 96-well plate and incubated at room temperature for 10-20 min. […] While incubating, purified antibodies were diluted to the desired dilution with blocking buffer. After a 10-20 minutes incubation, cells were centrifuged for 5 min at 2000 rmp in a refrigerated centrifuge. Blocking buffer was aspirated, and cells were resuspended in 100 μl/well diluted antibodies and incubated for 1 hour at 4° C. The cells were then washed 3 times with PBS plus 2% FBS. After the final wash, the cells were resuspended in 100 μl 1:500 diluted secondary antibody (Invitrogen, Cat #: A10631) and incubated for 1 hour at 4° C. in the dark. The cells were then washed 3 times with 200 μl PBS by centrifuging at 2000 rpm for 5 min. After the last wash, the cells were resuspended in 300 μl cold PBS and analyzed on a FACSVerse™ (BD Biosciences) flow cytometer.

[2] = molecular target: T1, Rhesus-ICAM1; assay: SPR (Biacore 8K), antibody captured, antigen injected
Protocol: (§2) The binding kinetics of the anti-CD38 and anti-ICAM1 antibodies were evaluated on a Biacore 8K instrument (GE Healthcare). Biacore Series S CM5 sensor chips were immobilized with monoclonal mouse anti-human IgG (Fc) antibody (human antibody capture kit from GE Healthcare). Antibodies were captured on each flow cell. Serial 3-fold dilutions of each antigen were injected at a flow rate of 30 μl/min. Each sample was analyzed with 1 min association and 10 min dissociation at room temperature (25° C.). After each injection, the chip was regenerated using 3M MgCl₂. A 1:1 Langmuir model of simultaneous fitting of kₒₙ and koff was used for kinetics analysis.

[3] = molecular target: T3, recombinant human ICAM1 (human, UniProt P05362 28-480, limits assumed); assay: as above
Protocol: as §2

[4] = molecular target: T1, Rhesus-ICAM1; assay: ELISA: plate coated with 1 ug/ml recombinant rhesus ICAM1 ECD, serially diluted antibody, OD450
Protocol: (§3) The plate was coated overnight at 4° C. with 1 μg/ml recombinant CD38 or ICAM1. After washing 3 times, the plate was blocked with 300 μl 1% BSA in PBST at 37° C. for 1 hour. Serially diluted antibodies were added and incubated at 37° C. for 1 hour. The plate was then washed 4 times with PBST and incubated with 1:5000 diluted 2nd antibody (Sigma, Cat #A0293) at 37° C. for 1 hour.

[5] = molecular target: T3, recombinant human ICAM1; assay: ELISA: plate coated with 1 ug/ml recombinant human ICAM1 ECD, serially diluted antibody, OD450
Protocol: as §3

[6] = molecular target: T4, CD38 on the surface of Daudi cells (human, UniProt P28907 1-300); assay: flow cytometry, Daudi cells;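 also: purified antibodies incubated with Daudi cells for 1 h at 4 °C, bound antibody detected by fluorescent secondary antibody and read by flow cytometry as MFI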
T4 construct: whole, on cells
Protocol: as §1

[7] = molecular target: T5, cynomolgus CD38 ECD (cynomolgus, UniProt Q5VAN0 44-301, biotinylated on the AviTag during preparation); assay: ELISA: plate coated with 1 ug/ml recombinant cynomolgus CD38 ECD, serially diluted antibody, OD450
T5 construct: also called Cyno-CD38; Avi-Cyno CD38 ECD
Protocol: as §3

[8] = molecular target: recombinant human CD38 (human, UniProt P28907 43-300, limits assumed); assay: SPR (Biacore 8K), antibody captured, antigen injected;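 also: antibodies held on a CM5 chip through anti-human IgG Fc, antigen in 3-fold serial dilutions, 1 min association then 10 min dissociation at 25 °C, 1:1 Langmuir global fit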
Protocol: as §2

[9] = molecular target: T5, cynomolgus CD38 ECD; assay: as above
Protocol: as §2

T3 sequence (P05362 28-480 limits assumed): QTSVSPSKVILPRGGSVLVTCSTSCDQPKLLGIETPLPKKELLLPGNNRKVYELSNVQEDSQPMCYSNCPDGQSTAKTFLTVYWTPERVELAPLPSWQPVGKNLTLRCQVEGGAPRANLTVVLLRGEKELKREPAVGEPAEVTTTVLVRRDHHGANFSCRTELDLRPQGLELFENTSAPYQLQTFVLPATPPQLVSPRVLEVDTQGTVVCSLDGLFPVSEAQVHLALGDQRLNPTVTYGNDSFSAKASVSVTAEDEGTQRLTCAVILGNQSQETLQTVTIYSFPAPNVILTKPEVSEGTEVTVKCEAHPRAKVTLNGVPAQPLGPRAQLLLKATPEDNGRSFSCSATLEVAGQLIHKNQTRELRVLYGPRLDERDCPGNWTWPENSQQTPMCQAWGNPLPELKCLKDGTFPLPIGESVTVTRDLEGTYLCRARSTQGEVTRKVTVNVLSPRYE
T2 sequence (P05362 28-532): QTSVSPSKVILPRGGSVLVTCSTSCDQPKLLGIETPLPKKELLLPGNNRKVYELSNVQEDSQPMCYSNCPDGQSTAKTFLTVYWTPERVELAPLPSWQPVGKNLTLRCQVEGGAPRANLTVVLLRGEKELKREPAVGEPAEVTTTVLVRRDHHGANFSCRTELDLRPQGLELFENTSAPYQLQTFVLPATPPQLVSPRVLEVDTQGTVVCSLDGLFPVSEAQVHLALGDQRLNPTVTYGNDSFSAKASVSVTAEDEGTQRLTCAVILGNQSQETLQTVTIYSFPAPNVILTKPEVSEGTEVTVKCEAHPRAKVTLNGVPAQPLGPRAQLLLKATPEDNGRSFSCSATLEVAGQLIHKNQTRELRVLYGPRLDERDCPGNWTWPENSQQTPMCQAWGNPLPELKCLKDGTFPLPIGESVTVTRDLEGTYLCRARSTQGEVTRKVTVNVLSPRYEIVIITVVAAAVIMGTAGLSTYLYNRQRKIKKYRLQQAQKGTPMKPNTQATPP

Binder	EC50 [1] [nM]	Max Binding MFI [1] [MFI]	Kd [2] [nM]	koff [2] [s⁻¹]	kon [2] [M⁻¹ s⁻¹]	Kd [3] [nM]	koff [3] [s⁻¹]	kon [3] [M⁻¹ s⁻¹]	EC50 (read off the curve) [4] [nM]	EC50 (read off the curve) [5] [nM]	EC50 [6] [nM]	Max Binding MFI [6] [MFI]	EC50 (read off the curve) [7] [nM]	Kd [8] [nM]	koff [8] [s⁻¹]	kon [8] [M⁻¹ s⁻¹]	Kd [9] [nM]	koff [9] [s⁻¹]	kon [9] [M⁻¹ s⁻¹]
3D8 (antibody, human IgG1, kappa, V domains shown, Rabbit-human chimeric anti-ICAM1: rabbit VH and VL on human IgG1 and kappa constant regions) VH: QSLEESGGDLVKPGASLTLTCTASGFSFSSSYWMCWVRQAPGKGLEWIACIDGGSAGYNYYATWAKGRFTISKTSSTTVTLQMTSLTAADRATYFCARGPGSSYNLWGPGTLVTVSS VL: DIVMTQTPASVEAAVGGTVTIKCQASQSISSYLSWYQQKPGQPPKLLIYRASTLASGVPSRFKGSGSGTEFTLTISDLESADAATYYCQSYVFGSSRSYDNAFGGGTEVVVKR	0.208	6430	17.3	0.0348	2.01e+06	16.8	0.00909	540000	~0.04	~0.04	–	–	–	–	–	–	–	–	–
14B3 (antibody, human IgG1, kappa, V domains shown, Rabbit-human chimeric anti-ICAM1: rabbit VH and VL on human IgG1 and kappa constant regions) VH: QSLEESGGDLVKPGASLTLTCTASGFSSSSGYYICWVRQAPGKGLEWIACIGAGSGAAYYASWAKGRFTMSKTSSTTVTLQMTSLTAADTATYFCARGGFVVGGGYGGYCFNLWGPGTLVTVSS VL: AQVLTQTASSVSATVGGTVTISCQSSESVDVNNLAWYQQKPGQPPKLLIYSASTLASGVPSRFKGSGSGTQFTLTVSDLESADAATYYCAGGYSGNIFAFGGGTAVVVKR	6.01	2940	3.2	0.000596	186000	2.85	0.00027	94800	~0.04	~0.04	–	–	–	–	–	–	–	–	–
5B12 (antibody, human IgG1, kappa, V domains shown, Rabbit-human chimeric anti-ICAM1: rabbit VH and VL on human IgG1 and kappa constant regions) VH: QSLEESGGRLVTPGTPLTLTCTVSGFSLSSYGMSWVRQAPGKGLEYIGWISFSGSAYYANWAKGRFTISKTSTTVDLKITSPTTEDTATYFCARGGDYGGSTYILNLWGPGTLVTVSS VL: AFELTQTPSSVEAAVGGTVTIKCQASESIDSYLSWYQQKPGQPPKLLIYAASTLASGVSSRFKGSGSGTEFTLTISDLESADAATYYCQSYSGTITTSGGAFGGGTEVVVKR	0.113	5940	8.2	0.00218	266000	2.74	0.000584	213000	~0.04	~0.04	–	–	–	–	–	–	–	–	–
26D4 (antibody, human IgG1, kappa, V domains shown, Rabbit-human chimeric anti-CD38: rabbit VH and VL on human IgG1 and kappa constant regions) VH: QEQLEESGGDLVKPEGSLTLTCTASGFSFSNDAICWVRQAPGKGLEWIACIYAGSGNTYYASWAKGRFSISKTSSTTVTLQMTSLTVADTATYFCASADTIDYFNLWGPGTLVTVSS VL: AQVLTQTPSPVSAAVGGTVTINCQASQSVYNNNYLAWYQQKPGQPPKLLIYRASNLASGVPSRFSASGSGTQFTLTISEVQSDDAATYYCQAYYRDPTTAFGGGTEVVVKR	–	–	–	–	–	–	–	–	–	–	4.06	577	~0.06	510	0.102	200000	43.8	0.0313	715000
8B12 (antibody, human IgG1, kappa, V domains shown, Rabbit-human chimeric anti-ICAM1: rabbit VH and VL on human IgG1 and kappa constant regions) VH: QSVEESGGGLVKPGGTLTLTCTVSGFSLSTHAMGWVRQAPGKGLEYIGIIGSSDRTYYASWAKGRFTISKTSTTVDLKITSPTTEDTATYFCVRDPYDSFDDGYRLWGPGTLVTVSS VL: AYDMTQTPASVEVAVGGTVTIKCQASQSIYSYLSWYQQKPGQRPKFLIYDASKVASGVPSRFKGSGSGTEFTLTISAVQSDDAATYYCQQAYSSSNVDNAFGGGTEVMVKR	1.02	3750	0.88	0.000658	746000	0.26	0.000115	442000	~0.04	~0.04	–	–	–	–	–	–	–	–	–
16E4 (antibody, human IgG1, kappa, V domains shown, Rabbit-human chimeric anti-ICAM1: rabbit VH and VL on human IgG1 and kappa constant regions) VH: QSVEESGGRLVTPGTPLTLTCTVSGFSLSSHAMGWVRQAPGKGLQYIGIIGSSGSTYYASWAKGRFTISKTSTTVDLRLTSPTTEDTATYFCVRDPYDSFGDAYRLWGPGTLVTVSS VL: AYDMTQTPASVEVAVGGTVTIKCQASQSIYSYCSWYQQKPGQRPKFLIYDASKLASGVPSRFKGSGSGTEFTLTISGMQSDDAATYYCQQAYSSSNVDNAFGGGTEVVVKR	1.45	3700	0.54	0.000277	517000	0.57	0.000134	237000	~0.04	~0.04	–	–	–	–	–	–	–	–	–
6G8 (antibody, human IgG1, kappa, V domains shown, Rabbit-human chimeric anti-ICAM1: rabbit VH and VL on human IgG1 and kappa constant regions) VH: QSVEESGGGLVKPGGTLTLTCTVSGFSLSSYAMGWVRQAPGKGLEYIGIIGSSGSTYYATWAKGRFTISKTSTTVDLKITSPTTEDTATYFCVRDPYDSYDAAYRLWGPGTLVTVSS VL: AYDMSQTPASVEVAVGGTVTIKCQASQSIYSYLSWYQQKPGQRPKLLIYDASKLASGVPSRFTGSGSGTEFTLTISGVQSDDAATYYCQQAYSSSNVDNVFGGGTEVVVKR	2.23	4190	0.85	0.00126	1.47e+06	1.7	0.000533	314000	~0.04	~0.04	–	–	–	–	–	–	–	–	–

The next lines start with the values.

EC50 [1] [nM]	Max Binding MFI [1] [MFI]	Kd [2] [nM]	koff [2] [s⁻¹]	kon [2] [M⁻¹ s⁻¹]	Kd [3] [nM]	koff [3] [s⁻¹]	kon [3] [M⁻¹ s⁻¹]	EC50 (read off the curve) [4] [nM]	EC50 (read off the curve) [5] [nM]	EC50 [6] [nM]	Max Binding MFI [6] [MFI]	EC50 (read off the curve) [7] [nM]	Kd [8] [nM]	koff [8] [s⁻¹]	kon [8] [M⁻¹ s⁻¹]	Kd [9] [nM]	koff [9] [s⁻¹]	kon [9] [M⁻¹ s⁻¹]	Binder
–	–	–	–	–	–	–	–	–	–	1.32	782	~0.06	65.4	0.021	321000	62.4	0.0352	564000	22H6 (antibody, human IgG1, kappa, V domains shown, Rabbit-human chimeric anti-CD38: rabbit VH and VL on human IgG1 and kappa constant regions) VH: QSVEESGGRLVTPGTPLTLTCTVSGFSLSNNAISWVRQAPGKGLQWIGSIYGSGNTYYATWAKGRFTVSKTSTTVDLKINSPTTEDTATYFCAREGAGSSWGFNLWGPGTLVTVSS VL: AQVLTQTASSVSAAVGGTVTISCQSSESVYKNNYLSWYQQKPGQPLKCLIYSASTLASGVPSRFKGSGSGTQFTLTISDLESDDAATYYCAGGYSGNINGFGGGTEVVVKR
0.124	9190	7.06	0.00189	268000	24.4	0.00361	148000	~0.04	~0.04	–	–	–	–	–	–	–	–	–	8E5 (antibody, human IgG1, kappa, V domains shown, Rabbit-human chimeric anti-ICAM1: rabbit VH and VL on human IgG1 and kappa constant regions) VH: QSLEESGGRLVTPGTPLTLTCTVSGFSLSNYAMNWVRQAPGKGLEWIGYISTRGSAYYASWAKGRFTISKTSTTVDLKMTSPTTEDTATYFCARGDLVGGGYIRGSFDPWGPGTLVTVSS VL: AQVLTQTPSPVSAAVGGTVTINCQSSQSVVSDKLLSWFQQKPGQPPKLLIYGASTLASGVPSRFKGSGSGTQFTLTISDVQSDDAATYYCAGAYSTDSDIRAFGGGTEVVVKR
0.251	6220	8.27	0.00245	296000	3.32	0.000682	206000	~0.04	~0.04	–	–	–	–	–	–	–	–	–	10B8 (antibody, human IgG1, kappa, V domains shown, Rabbit-human chimeric anti-ICAM1: rabbit VH and VL on human IgG1 and kappa constant regions) VH: QSLEESGGRLVTPGGSLTLTCTVSGFSLSSYGMSWVRQAPGKGLEYIGWISFSGSAYYANWAKGRFTISKTSTTVDLKITSPTTEDTATYFCARGGDYGGSTYILNLWGPGTLVTVSS VL: AFELTQTPSSVEAAVGGTVTIKCQASESINSYLSWYQQKPGQPPKLLIYAASTLASGVSSRFKGSGSGTEFTLTISDLESADAATYYCQSYSGTISTSGGAFGGGTEVVVKR
–	–	–	–	–	–	–	–	–	–	0.373	816	~0.06	98.5	0.0341	346000	54.8	0.0322	588000	20B5 (antibody, human IgG1, kappa, V domains shown, Rabbit-human chimeric anti-CD38: rabbit VH and VL on human IgG1 and kappa constant regions) VH: QSLEESGGDLVKPGASLTLTCTASGFSFSSRYWICWVRQAPGKGLEWIACIVAGTTNTYYASWAKGRFTISKTSSTTVTLQMTSLTAADTATYFCAGDPRTGSNVGYFNLWGPGTLVTVSS VL: AQVLTQTPSPVSAAVGGTVTINCQASQSVYNNNYLAWFQQKPGQPPKLLIYSASTLASGVPSRFKGSGSGTQFTLTISEVQSDDAATYYCQAYYSGGIYAFGGGTEVVVKR
1.59	3980	1.17	0.000387	330000	0.65	0.000149	227000	~0.04	~0.04	–	–	–	–	–	–	–	–	–	2E3 (antibody, human IgG1, kappa, V domains shown, Rabbit-human chimeric anti-ICAM1: rabbit VH and VL on human IgG1 and kappa constant regions) VH: QSVEESGGGLVKPGGTLTLTCTVSGFSLSSYAMGWVRQAPGKGLEYIGIIGSSGSTYYASWAKGRFTISKTSTTVDLKITSPTTEDTATYFCVRDPYDSFGDGYRLWGPGTLVTVSS VL: AYDMTQTPASVEVAVGGTVTIKCQASENIYRYLLWYQQKLGQRPSLLIYDASKLASGVPSRFKGSGSGTEFTLTISGVQSDDAATYYCQQAYSSSNVDNAFGGGTEVVVKR
